# Publication PMC13612217
# Target: S-chain of the optimized human DROP-CAR containing dmLD3 (human)
substance,measurement,value
R-domain of the anti-PSMA DROP-CAR (J591 scFv fused to Bcl-2),"percent of anti-PSMA DROP-CAR Jurkat cells still bound to a PC3-PIP monolayer at 1,000 pN (z-Movi acoustic force ramp), with venetoclax, partially detached cells counted as bound",30%
same,"percent of anti-PSMA DROP-CAR Jurkat cells still bound to a PC3-PIP monolayer at 1,000 pN (z-Movi acoustic force ramp), with venetoclax, partially detached cells counted as dissociated",< 10%
same,"percent of anti-PSMA DROP-CAR Jurkat cells still bound to a PC3-PIP monolayer at 1,000 pN (z-Movi acoustic force ramp), without venetoclax, partially detached cells counted as bound",64%
same,"percent of anti-PSMA DROP-CAR Jurkat cells still bound to a PC3-PIP monolayer at 1,000 pN (z-Movi acoustic force ramp), without venetoclax, partially detached cells counted as dissociated",30%
